In patent US20230002499A1, “METHODS OF CANCER TREATMENT WITH ANTI-OX40 ANTIBODY IN COMBINATION WITH CHEMOTHERAPEUTIC AGENTS” (BeiGene (Beijing) Co., Ltd., priority 2019, published 2023):

T1: full-length human OX40 expressed on HuT78/OX40 cells (human, UniProt P43489 29-277)
T1 sequence: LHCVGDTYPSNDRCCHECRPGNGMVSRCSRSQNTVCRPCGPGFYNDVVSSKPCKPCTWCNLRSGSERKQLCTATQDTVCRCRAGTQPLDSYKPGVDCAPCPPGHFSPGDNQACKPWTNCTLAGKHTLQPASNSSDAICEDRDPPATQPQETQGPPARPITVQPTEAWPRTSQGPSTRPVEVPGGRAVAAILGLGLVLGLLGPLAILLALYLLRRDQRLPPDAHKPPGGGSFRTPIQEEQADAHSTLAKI


What was measured:
[1] = biological target: T1, full-length human OX40 expressed on …; assay: flow cytometry on live HuT78/OX40 cells; top of fitted curve
Description: To evaluate the binding activity of anti-OX40 antibodies to bind OX40 expressed on the surface of live cells, HuT78 cells were transfected with human OX40 as described in Example 1 to create an OX40 expressing line. Live HuT78/OX40 cells were seeded in 96-well plate and were incubated with a serial dilution of various anti-OX40 antibodies. Goat anti-Human IgG-FITC (Cat: A0556, Beyotime) was used as a secondary antibody to detect antibody binding to the cell surface. EC₅₀ values for dose-dependent binding to human OX40 were determined by fitting the dose-response data to the four-parameter logistic model with GraphPad Prism.

[2] = tested on: CT26WT cells, a murine colon carcinoma cell line; assay: CT26WT syngeneic mouse model, OX86 in combination with Oxaplatin/5-Fu; assay type: in vivo; conditions: OX86 0.08 mg/kg QW i.p.; Oxaplatin 1.5 mg/kg QW i.p.; 5-Fu 15 mg/kg once daily five days per week i.p.
Description: Female BALB/c mice were subcutaneously implanted with 1×10^5 CT26WT cells, a murine colon carcinoma cell line, in 150 μL PBS in the right flank. After inoculation, the mice were randomized into 4 groups with 20 animals in each group. Mice were treated with vehicle as a control.
OX86 is a rat anti-mouse OX40 antibody previously disclosed in WO2016/057667, which was further engineered with mouse IgG2a constant regions in order to reduce its immunogenicity and also keep its Fc-mediated functions in mouse studies. The VH and VL regions of OX86 are provided below. […] As monotherapy, OX86 was administered at 0.08 mg/kg once per week (QW) by intraperitoneal (i.p.) injection.
Oxaplatin/5-Fluorouracil (5-Fu) was administered as a single agent to the mice. The OX86 antibody in combination with Oxaplatin/5-Fu was administered as combination therapy. OX86 (0.08 mg/kg) was administered once per week by intraperitoneal (i.p.) injection. Oxaplatin (1.5 mg/kg) was also dosed once per week (QW) intraperitoneally, and 5-Fu was given at 15 mg/kg once daily for five consecutive days per week by i.p. injection. […] Tumor volume was determined twice weekly in two dimensions by using a caliper and was expressed in mm^3 using the formula: V=0.5(a×b^2) where a and b are the long and short diameters of the tumor, respectively. […] Tumor growth inhibition (TGI) is calculated using the following formula: […]

| Top (MFI), Mean [1] [MFI] | Molecule | Mean Tumor Volume on Day 11 (Mean ± SEM) [2] [mm^3] | TGI (%) on Day 11 [2] [%] |
| --- | --- | --- | --- |
| 620 | 445-2 (antibody, human IgG1, V domains shown) VH: QVQLVQSGAEVKKPGSSVKVSCKASGYKFTSYIIHWVRQAPGQGLEWMGYINPYNEGTRYAQKFQGRVTLTADKSTSTAYMELSSLRSEDTAVYYCARGYYGSSYAMDYWGQGTTVTVSS VL: DIQMTQSPSSLSASVGDRVTITCSASQGISNYLNWYQQKPGKAIKLLIYDASTLYSGVPSRFSGSGSGTDFTLTISSLQPEDFATYYCQQYSKLPYTFGGGTKVEIK | – | – |
| 910 | 445-3 (antibody, human IgG1, V domains shown, Human IgG1 wild type format) VH: QVQLVQSGAEVKKPGSSVKVSCKASGYKFTSYIIHWVRQAPGQGLEWMGYINPYNEGTRYNQKFQGRVTLTADKSTSTAYMELSSLRSEDTAVYYCARGYYGSSYAMDYWGQGTTVTVSS VL: DIQMTQSPSSLSASVGDRVTITCRASQGISNYLNWYQQKPDGAIKLLIYDASTLYSGVPSRFSGSGSGTDFTLTISSLQPEDFATYYCQQYSKLPYTFGGGTKVEIK | – | – |
| 892 | 445-3 IgG4 (antibody, V domains shown) VH: QVQLVQSGAEVKKPGSSVKVSCKASGYKFTSYIIHWVRQAPGQGLEWMGYINPYNEGTRYNQKFQGRVTLTADKSTSTAYMELSSLRSEDTAVYYCARGYYGSSYAMDYWGQGTTVTVSS VL: DIQMTQSPSSLSASVGDRVTITCRASQGISNYLNWYQQKPDGAIKLLIYDASTLYSGVPSRFSGSGSGTDFTLTISSLQPEDFATYYCQQYSKLPYTFGGGTKVEIK | – | – |
| 525 | 445-1 (antibody, IgG1, V domains shown, Full-length antibody with human wild-type IgG1 (IgG1wt) and kappa constant regions) VH: QVQLVQSGAEVKKPGSSVKVSCKASGYKFTSYIIHWVRQAPGQGLEWMGYINPYNDGTRYNQKFQGRVTLTSDKSTSTAYMELSSLRSEDTAVYYCARGYYGSSYAMDYWGQGTTVTVSS VL: DIQMTQSPSSLSASVGDRVTITCSASQGISNYLNWYQQKPGKAIKLLIYDTSTLYSGVPSRFSGSGSGTDYTLTISSLQPEDFATYYCQQYSKLPYTFGGGTKVEIK | – | – |
| – | OX86: rat anti-mouse OX40 antibody disclosed in WO2016/057667, engineered with mouse IgG2a constant regions; VH SEQ ID NO: 32, VL SEQ ID NO: 33 (antibody, V domains shown, mouse IgG2a constant regions) VH: QVQLKESGPGLVQPSQTLSLTCTVSGFSLTGYNLHWVRQPPGKGLEWMGRMRYDGDTYYNSVLKSRLSISRDTSKNQVFLKMNSLQTDDTAIYYCTRDGRGDSFDYWGQGVMVTVSS VL: DIVMTQGALPNPVPSGESASITCRSSQSLVYKDGQTYLNWFLQRPGQSPQLLTYWMSTRASGVSDRFSGSGSGTYFTLKISRVRAEDAGVYYCQQVREYPFTFGSGTKLEIK | 969.2 ± 229.0 | 48 |
| 725 | ch445 (antibody, V domains shown) VH: EVQLQQSGPELVKPGASVKMSCKASGYKFTSYIIHWVKQKPGQGLEWIGYINPYNDGTRYNEKFKGKATLTSDKSSSTAYMEYSSLTSEDSAVYYCARGYYGSSYAMDYWGQGTSVTVSS VL: DIQMTQTTSSLSASLGDRVTISCSASQGISNYLNWYQQKPDGTIKLLIYDTSTLYSGVPSRFSGSGSGTDYFLTISNLEPEDIATYYCQQYSKLPYTFGGGTKLEKK | – | – |
